{"source": "paper doi:10.1101/2023.03.13.532361", "biological_target": "SLA dehydrogenase RlGabD from Rhizobium leguminosarum SRDI565 (Rhizobium leguminosarum SRDI565)", "assay": "SEC-MALS"}
{"substance": "SLA dehydrogenase RlGabD from Rhizobium leguminosarum SRDI565 (enzyme)", "values": [{"measurement": "stoichiometry N", "result": 4}]}
